For test [1], the target named is T1, HOIP UBA domain (human, UniProt Q96EP0 480-636).
T1 sequence: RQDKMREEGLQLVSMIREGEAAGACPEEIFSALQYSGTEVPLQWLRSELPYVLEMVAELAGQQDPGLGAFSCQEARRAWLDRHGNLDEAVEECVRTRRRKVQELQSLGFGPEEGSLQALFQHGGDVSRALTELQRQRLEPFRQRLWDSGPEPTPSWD
Briefly: ITC.

For test [2], the target named is T2, IpaH1.4 LRR domain (S. flexneri, UniProt A0A0H2USG1 38-283).
T2 sequence: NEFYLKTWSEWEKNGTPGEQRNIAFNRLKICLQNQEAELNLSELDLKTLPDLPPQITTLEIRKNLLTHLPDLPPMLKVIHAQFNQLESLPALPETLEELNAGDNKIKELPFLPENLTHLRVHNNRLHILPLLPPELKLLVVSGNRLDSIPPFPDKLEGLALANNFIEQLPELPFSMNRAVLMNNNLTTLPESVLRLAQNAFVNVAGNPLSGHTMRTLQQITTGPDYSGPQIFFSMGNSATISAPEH
Briefly: ITC.

B1: HOIL-1L UBL domain (domain or fragment)
chain: QDIRLWVSVEDAQMHTVTIWLTVRPDMTVASLKDMVFLDYGFPPVLQQWVIGQRLARDQETLHSHGVRQNGDSAYLYLLSARN
B1: the Kd (usually the equilibrium constant for the complex coming apart) in test [1] was determined as 3.9 ± 0.4 µM; in test [2] it was 10.7 µM.

The record behind these values is PMC8944867 (Proceedings of the National Academy of Sciences of the …, 2022).
